Assay results taken from PMC2926597.

Target: T1, KSRP KH23 (KH2-KH3 di-domain) (Homo sapiens, UniProt Q92945 233-418)
T1 sequence: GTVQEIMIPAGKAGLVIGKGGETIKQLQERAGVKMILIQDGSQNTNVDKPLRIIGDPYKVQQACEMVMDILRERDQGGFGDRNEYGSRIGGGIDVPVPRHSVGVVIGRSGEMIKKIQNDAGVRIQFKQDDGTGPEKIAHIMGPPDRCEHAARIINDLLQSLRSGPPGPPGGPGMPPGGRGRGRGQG
Assay: CD titration

Work on UAUUUAUUAUUU (ssRNA) [TNFa ARE AU-12mer] yielded a Kd of 1000 ± 100 nM.
